# The supplement of paper PMC9732359
# ± gives the uncertainty stated by the source.
# Assay: protein stability index of a GFP-peptide fusion (yeast GPS) (PSI 1-4); higher = more stable; sorted into four equal gates, so the index is relative within each strain
# Outline: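 Mid-log yeast cultures in leucine-free medium, carrying a pooled plasmid library, were sorted into four equal gates by their GFP/Cherry fluorescence ratio. Each plasmid expressed Cherry along with GFP fused upstream of a tiled 17-residue yeast protein peptide. Plasmids recovered from each gate were PCR-amplified and Illumina-sequenced, with reads assigned to strains by barcodes. The protein stability index was obtained by summing each gate's read frequency weighted by its gate number.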
Sequence,protein stability index (doa10∆),protein stability index (pdr5∆),protein stability index (san1∆),protein stability index (ubr1∆)
QIDQLNRLLPNLPEEER [GRR1],2.62 ± 0.091,2.12 ± 0.064,2.05 ± 0.098,2.51 ± 0.083
QIFVRGSQIKFIVVPDL [SMD3],1.8 ± 0.071,2.35 ± 0.06,2.05 ± 0.064,2.02 ± 0.066
QIILAYIKYNILLTSIS [SRP68],1.29 ± 0.08,1.25 ± 0.074,1.12 ± 0.28,1.18 ± 0.15
QIILDRFAPDNQVTDSS [SIR3],,2.93 ± 0.13,2.94 ± 0.14,3.11 ± 0.098
QIIVTDGKLEPSTRSNF [YJL039C/NUP192],2.38 ± 0.099,3.13 ± 0.13,2.88 ± 0.11,3.32 ± 0.18
QIKTLPEQYSDILLNER [AAR2],2.96 ± 0.077,3.24 ± 0.06,3.14 ± 0.077,2.95 ± 0.072
QIMQNPTHYKIPAWFLN [RPS18A],2.02 ± 0.072,1.99 ± 0.071,1.66 ± 0.084,1.6 ± 0.048
QIQFTPLIKKIKYEPRF [SMC3],2.62 ± 0.061,2.52 ± 0.045,2.83 ± 0.09,2.43 ± 0.062
QIQKNVDLLQFPWLNAI [POP3],2.29 ± 0.07,2.09 ± 0.073,3.32 ± 0.11,2.35 ± 0.06
QIRACKDLKHIIYYKFN [PRP8],1.72 ± 0.037,1.73 ± 0.037,1.84 ± 0.056,1.59 ± 0.042
QISLNRLIDSMKQYSYL [RRI1],2.43 ± 0.23,2.29 ± 0.16,2.48 ± 0.17,3.11 ± 0.12
QITKFPKYRDNLATWYH [SSN3],2.77 ± 0.065,2.88 ± 0.077,2.7 ± 0.066,2.37 ± 0.041
QKDKSDTYKRFKYLLGV [ISW2],1.59 ± 0.05,1.4 ± 0.062,1.4 ± 0.1,1.58 ± 0.048
QKEEGRSFTKAIEDAKK [YLR335W/NUP2],3.1 ± 0.11,3.06 ± 0.085,3.05 ± 0.086,2.8 ± 0.069
QKLLKQLDSDANKLSKS [ISW2],3.03 ± 0.048,2.89 ± 0.053,2.92 ± 0.047,2.98 ± 0.04
QKVSQLESADKQLEKRD [POP4],3.26 ± 0.069,3.35 ± 0.083,3.27 ± 0.07,3.35 ± 0.077
QKYNLLHVLPTLNSRAL [SNM1],1.45 ± 0.084,1.74 ± 0.078,1.27 ± 0.18,1.56 ± 0.11
QKYTKEMIDSHIKEASE [SNF2],2.93 ± 0.06,2.88 ± 0.054,2.94 ± 0.051,3.02 ± 0.037
QLAPSSVDPQSSSTQNV [DIS3],2.99 ± 0.084,3.21 ± 0.079,2.8 ± 0.081,2.63 ± 0.098
QLDGFSSDDRVKVLAAT [RPT5],2.88 ± 0.16,2.83 ± 0.096,,1.58 ± 0.12

Sequence,protein stability index (doa10∆),protein stability index (pdr5∆),protein stability index (san1∆),protein stability index (ubr1∆)
QLEEDENITNKVTEKVL [CSI1],3.2 ± 0.088,3.2 ± 0.09,3.33 ± 0.057,3.13 ± 0.055
QLEKKIRFVCLSNCLAN [BRR2],1.82 ± 0.065,1.32 ± 0.048,1.31 ± 0.099,1.63 ± 0.045
QLENADTGTLDTKSVVG [RPN2],3.09 ± 0.087,3.01 ± 0.082,3.08 ± 0.071,3.04 ± 0.075
QLESIYFRILLPYERHM [SWI1],1.88 ± 0.055,1.83 ± 0.046,1.68 ± 0.067,1.9 ± 0.053
QLESYEYMVQYIDEMYN [RRI1],2.74 ± 0.052,2.89 ± 0.075,3.27 ± 0.14,2.42 ± 0.071
QLGLQTVIRGNSIISLE [SMX2],2.22 ± 0.093,2.57 ± 0.077,2.47 ± 0.07,2.25 ± 0.058
QLHFSLLDEEAEQSFDQ [RPO21],2.51 ± 0.11,2.77 ± 0.14,3.29 ± 0.1,2.64 ± 0.22
QLIAKNVANVSGSTEKA [SIR3],3.03 ± 0.085,3.04 ± 0.07,3.1 ± 0.054,2.88 ± 0.061
QLIPIILRQRGPGFKFV [SRB4],2.55 ± 0.11,1.65 ± 0.073,1.47 ± 0.19,1.69 ± 0.078
QLISAVLVSMGSSNKAV [YJL039C/NUP192],1.47 ± 0.23,1.69 ± 0.14,,1.23 ± 0.084
QLKHTKLALAENDTNMN [SMC4],3.13 ± 0.079,3.12 ± 0.097,3.25 ± 0.07,3.17 ± 0.048
QLLTPGSKISSNDLDKF [YGL172W/NUP49],2.88 ± 0.19,2.85 ± 0.084,3.13 ± 0.1,2.54 ± 0.2
QLPVGFKNMGNTCYLNA [UBP6],2.16 ± 0.073,1.76 ± 0.079,1.48 ± 0.12,1.6 ± 0.084
QLQKILESLKPIDDTMT [MTW1],2.73 ± 0.072,2.86 ± 0.058,2.69 ± 0.052,2.59 ± 0.042
QMEDMEESINEFKSIEI [SMC4],3.28 ± 0.13,3.4 ± 0.11,3.27 ± 0.049,2.93 ± 0.085
QMIELNRQICLVQKTVQ [GRR1],3.03 ± 0.1,2.56 ± 0.055,2.5 ± 0.063,2.09 ± 0.055
QNAAANAEAKGLDATKL [RPL17A],2.8 ± 0.28,3.39 ± 0.24,1.93 ± 0.25,
QNFAEEDDSSNSCFSDG [REC8],2.56 ± 0.15,2.59 ± 0.1,2.58 ± 0.12,3.33 ± 0.12
QNMQQSLQQMQHLQQLK [GAL11],2.96 ± 0.095,2.95 ± 0.07,2.94 ± 0.074,2.89 ± 0.098
